Residue numbers refer to the chain shown, from its start. Blank lines part the entries; values can stand above or below the binder they belong to.
Legend:
Assay in all cases: SPR, VHH captured by anti-Fc, ECD analyte
[1] = molecular target: T1, human pIgR extracellular domain (ECD) (human, UniProt P01833 19-638)
T1 construct: Bought from R&D Systems (Cat 2717-PG-050); also called hpIgR ECD
Method in brief: (§1)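 Single-cycle kinetics: ECD analyte from 30 nM, 3-fold series, low to high, with 30 min off-rate monitoring, over VHH captured at 0.5 ug/ml (~200-300 RU). HBSP plus 100 ug/ml BSA at 30 μL/min. Reference cell and buffer blank subtracted; global 1:1 Langmuir fit gave kon, koff, KD.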

[2] = molecular target: T2, mouse pIgR extracellular domain (ECD) (mouse, UniProt O70570 19-645)
T2 construct: Bought from R&D Systems (Cat 2800-PG-050); also called mpIgR ECD
T2 sequence: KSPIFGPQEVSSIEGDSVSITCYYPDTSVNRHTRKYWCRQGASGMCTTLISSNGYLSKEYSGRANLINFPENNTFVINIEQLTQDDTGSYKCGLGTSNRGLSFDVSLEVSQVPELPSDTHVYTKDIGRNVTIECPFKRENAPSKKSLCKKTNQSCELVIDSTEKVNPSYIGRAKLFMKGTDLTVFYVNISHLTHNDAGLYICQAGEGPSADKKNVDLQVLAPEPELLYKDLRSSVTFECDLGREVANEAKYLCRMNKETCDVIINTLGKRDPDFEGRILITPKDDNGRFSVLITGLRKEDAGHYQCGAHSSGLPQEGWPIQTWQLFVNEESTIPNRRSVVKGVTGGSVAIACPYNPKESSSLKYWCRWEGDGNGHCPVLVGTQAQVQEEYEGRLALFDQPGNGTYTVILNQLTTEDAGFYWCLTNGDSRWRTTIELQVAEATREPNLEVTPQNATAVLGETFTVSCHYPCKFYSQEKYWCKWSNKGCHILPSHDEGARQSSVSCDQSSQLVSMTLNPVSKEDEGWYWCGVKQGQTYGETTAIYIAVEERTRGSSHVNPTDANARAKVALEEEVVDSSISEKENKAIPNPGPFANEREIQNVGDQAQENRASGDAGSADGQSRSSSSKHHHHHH
Method in brief: as §1

[3] = molecular target: T3, cynomolgus monkey pIgR extracellular domain (cynomolgus monkey, UniProt A0A2K5WMU9 19-638)
T3 construct: extracellular domain
Method in brief: as §1

[4] = molecular target: T4, rat pIgR extracellular domain (rat, UniProt P15083 19-643)
T4 construct: extracellular domain
T4 sequence (looked up): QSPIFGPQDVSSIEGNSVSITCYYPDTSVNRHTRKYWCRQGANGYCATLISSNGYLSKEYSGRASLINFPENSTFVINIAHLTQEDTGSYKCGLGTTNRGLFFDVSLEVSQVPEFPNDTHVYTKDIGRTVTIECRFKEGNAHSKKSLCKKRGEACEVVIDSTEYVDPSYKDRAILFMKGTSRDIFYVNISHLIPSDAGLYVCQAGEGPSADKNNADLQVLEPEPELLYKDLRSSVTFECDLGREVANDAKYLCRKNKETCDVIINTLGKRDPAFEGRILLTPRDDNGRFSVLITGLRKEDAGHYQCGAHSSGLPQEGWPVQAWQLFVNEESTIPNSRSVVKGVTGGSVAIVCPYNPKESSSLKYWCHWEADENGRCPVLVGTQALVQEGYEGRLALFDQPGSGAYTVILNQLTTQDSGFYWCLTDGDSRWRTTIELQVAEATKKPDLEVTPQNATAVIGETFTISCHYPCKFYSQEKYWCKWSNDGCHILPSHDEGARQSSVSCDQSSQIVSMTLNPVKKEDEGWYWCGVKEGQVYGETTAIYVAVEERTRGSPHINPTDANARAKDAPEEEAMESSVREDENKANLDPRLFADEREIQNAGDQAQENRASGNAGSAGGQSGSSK
Method in brief: as §1

T1 sequence (P01833 other isoform, or with tags, fused parts or gaps): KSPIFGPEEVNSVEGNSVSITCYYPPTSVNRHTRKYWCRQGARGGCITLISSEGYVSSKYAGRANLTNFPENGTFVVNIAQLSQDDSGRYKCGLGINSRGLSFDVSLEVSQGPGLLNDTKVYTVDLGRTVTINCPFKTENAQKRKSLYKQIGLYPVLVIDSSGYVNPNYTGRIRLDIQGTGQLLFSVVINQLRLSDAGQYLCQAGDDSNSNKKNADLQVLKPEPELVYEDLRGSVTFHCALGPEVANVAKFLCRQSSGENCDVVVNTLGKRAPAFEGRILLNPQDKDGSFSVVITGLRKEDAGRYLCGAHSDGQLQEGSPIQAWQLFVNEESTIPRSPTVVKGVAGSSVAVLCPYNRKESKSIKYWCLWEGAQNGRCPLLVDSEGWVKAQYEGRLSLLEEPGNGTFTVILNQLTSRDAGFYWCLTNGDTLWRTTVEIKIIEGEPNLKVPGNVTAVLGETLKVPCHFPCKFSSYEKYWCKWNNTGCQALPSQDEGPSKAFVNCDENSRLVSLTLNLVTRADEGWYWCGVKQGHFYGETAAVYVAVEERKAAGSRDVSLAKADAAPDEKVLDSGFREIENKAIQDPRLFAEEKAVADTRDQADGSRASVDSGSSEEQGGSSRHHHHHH
T3 sequence (A0A2K5WMU9 entry or part of it): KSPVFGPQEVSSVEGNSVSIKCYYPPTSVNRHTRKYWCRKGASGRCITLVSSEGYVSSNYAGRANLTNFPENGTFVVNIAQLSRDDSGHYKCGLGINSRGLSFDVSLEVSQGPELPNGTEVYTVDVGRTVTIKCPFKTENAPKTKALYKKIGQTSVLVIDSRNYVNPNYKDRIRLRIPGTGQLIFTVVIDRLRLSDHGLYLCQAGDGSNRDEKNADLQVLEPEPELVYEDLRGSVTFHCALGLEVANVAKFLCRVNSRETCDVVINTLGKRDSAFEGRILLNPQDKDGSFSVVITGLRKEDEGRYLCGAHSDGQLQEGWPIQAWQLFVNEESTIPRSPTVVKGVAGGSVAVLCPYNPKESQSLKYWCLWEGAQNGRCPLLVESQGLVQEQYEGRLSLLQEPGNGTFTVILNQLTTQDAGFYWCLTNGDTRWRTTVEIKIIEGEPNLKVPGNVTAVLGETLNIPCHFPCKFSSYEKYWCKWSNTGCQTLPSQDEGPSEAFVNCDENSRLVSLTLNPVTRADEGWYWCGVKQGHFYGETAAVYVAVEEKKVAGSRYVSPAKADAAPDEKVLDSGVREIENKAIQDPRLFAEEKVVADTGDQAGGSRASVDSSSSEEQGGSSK

Kd [1]: 0.681 nM
Kd [2]: 0.301 nM
Kd [3]: 0.353 nM
Kd [4]: 0.234 nM
B1: 01A09R3L VHH Mono-Fc (Fc fusion)
chain: EVQLVESGGGVVQAEDSLRLSCAASGLSFSLSRMGWFRQAPGKEREFVATIEWSGRSTYKYYDDSVKGRFAVSGDNTKNTMNLQMKGLNLEDTGVYYCAANPNNYGDPRTPGAYQYWGQGTQVTVSSSPAPELLGGPSVFLFPPKPKDTLMISRTPEVTCVVVDVSHEDPEVKFNWYVDGVEVHNAKTKPREEQYNSTYRVVSVLTVLHQDWLNGKEYKCKVSNKALPAPIEKTISKAKGQPREPQVYTKPPSREEMTKNQVSLSCLVKGFYPSDIAVEWESNGQPENNYKTTVPVLDSDGSFRLASYLTVDKSRWQQGNVFSCSVMHEALHNHYTQKSLSLSPGK

Kd [1]: 61 nM
Kd [2]: 3.95 nM
Kd [3]: 44.3 nM
Kd [4]: 6.19 nM
B2: 01H08R3 VHH Mono-Fc (Fc fusion)
chain: QVQLVESGGGSVQTGGSLRLSCTASGRTFSNYGMGWFRQAPGKEREFVAGITRSGRTTYYYYADAVKGRFTIPRDNADNTIYLQMDSMKPDDTAVYYCAARQGENNYDPRSGSAYNYWGPGTQVTVSSSPAPELLGGPSVFLFPPKPKDTLMISRTPEVTCVVVDVSHEDPEVKFNWYVDGVEVHNAKTKPREEQYNSTYRVVSVLTVLHQDWLNGKEYKCKVSNKALPAPIEKTISKAKGQPREPQVYTKPPSREEMTKNQVSLSCLVKGFYPSDIAVEWESNGQPENNYKTTVPVLDSDGSFRLASYLTVDKSRWQQGNVFSCSVMHEALHNHYTQKSLSLSPGK

Kd [1]: 4.48 nM
Kd [2]: 107 nM
Kd [3]: 6.54 nM
Kd [4]: 18.2 nM
B3: 01B12R2 VHH Mono-Fc (Fc fusion)
chain: EVQLVESGGGLVQAGGSLRLSCAASGRTFSSGIMGWFRQAPGKEREFVAAIEWSGGNTYKYYAESVKGRFAISRDNAKTTAYLQMGSLNPEDTALYYCAADESPSRYIDLRRPAPYHYWGQGTLVTVSSSPAPELLGGPSVFLFPPKPKDTLMISRTPEVTCVVVDVSHEDPEVKFNWYVDGVEVHNAKTKPREEQYNSTYRVVSVLTVLHQDWLNGKEYKCKVSNKALPAPIEKTISKAKGQPREPQVYTKPPSREEMTKNQVSLSCLVKGFYPSDIAVEWESNGQPENNYKTTVPVLDSDGSFRLASYLTVDKSRWQQGNVFSCSVMHEALHNHYTQKSLSLSPGK

Kd [1]: 5.77 nM
Kd [2]: 5.71 nM
Kd [3]: 10 nM
Kd [4]: 4.27 nM
B4: 01G09R3LS VHH Mono-Fc (Fc fusion)
chain: EVQLVESGGGLVQAGDSLRLSCAASGRTFPTYAMGWFRQAPGKEREFVATIRWSGSTQYKYYADFVKGRFTISRDNAKNTVYLQMDSLKPEDTAVYYCAATTLLTDPRALNAYAYWGQGTQVTVSSSPAPELLGGPSVFLFPPKPKDTLMISRTPEVTCVVVDVSHEDPEVKFNWYVDGVEVHNAKTKPREEQYNSTYRVVSVLTVLHQDWLNGKEYKCKVSNKALPAPIEKTISKAKGQPREPQVYTKPPSREEMTKNQVSLSCLVKGFYPSDIAVEWESNGQPENNYKTTVPVLDSDGSFRLASYLTVDKSRWQQGNVFSCSVMHEALHNHYTQKSLSLSPGK

Kd [1]: 28.6 nM
Kd [2]: 8.93 nM
Kd [3]: 10.1 nM
Kd [4]: 6.85 nM
B5: 01A07R3LS VHH Mono-Fc (Fc fusion)
chain: B4 chain with E1Q, T105G, A112E

Kd [1]: 1.05 nM
Kd [2]: 586 nM
Kd [3]: 219 nM
Kd [4]: 116 nM
B6: 01B08R2 VHH Mono-Fc (Fc fusion)
chain: EVQLVESGGRLVQAGGSLRLSCAASGLTRSDYAMGWFRQAPGKEREFVATLKWSEGSRFMYRAEDVKGRFTISSGAAKTTVWLDMDALNPEDTAVYYCAAGFNVGFVRRASEYNFWGQGTLVTVSSSPAPELLGGPSVFLFPPKPKDTLMISRTPEVTCVVVDVSHEDPEVKFNWYVDGVEVHNAKTKPREEQYNSTYRVVSVLTVLHQDWLNGKEYKCKVSNKALPAPIEKTISKAKGQPREPQVYTKPPSREEMTKNQVSLSCLVKGFYPSDIAVEWESNGQPENNYKTTVPVLDSDGSFRLASYLTVDKSRWQQGNVFSCSVMHEALHNHYTQKSLSLSPGK

Kd [1]: 16.6 nM
Kd [2]: 4.32 nM
Kd [3]: 31.5 nM
Kd [4]: 3.44 nM
B7: 02B12R3 VHH Mono-Fc (Fc fusion)
chain: QVQLVESGGGWVQTGGSLRLSCAASGRTVSSYYMGWFRQTPGKEREFVAAISWVGSSTYKYYTDSAKGRFTISRDNAKNTVYLQMNSLKPEDTAVYYCAARPRVGDPRSRYDDDNWGQGTQVTVSSSPAPELLGGPSVFLFPPKPKDTLMISRTPEVTCVVVDVSHEDPEVKFNWYVDGVEVHNAKTKPREEQYNSTYRVVSVLTVLHQDWLNGKEYKCKVSNKALPAPIEKTISKAKGQPREPQVYTKPPSREEMTKNQVSLSCLVKGFYPSDIAVEWESNGQPENNYKTTVPVLDSDGSFRLASYLTVDKSRWQQGNVFSCSVMHEALHNHYTQKSLSLSPGK

Kd [1]: 35.8 nM
Kd [2]: 9.03 nM
Kd [3]: 28 nM
Kd [4]: 8.9 nM
B8: 01F04R2LS VHH Mono-Fc (Fc fusion)
chain: EVQLVESGGGLVQTGGSLRLSCAASGRTFSSYAMGWFRQAPGKEPERDFVAALRWSNDRTYYKYYADSVKGRFTISRDNAKNTVYLQMNTLKPEDTAVYYCAGGNYFSDPRVDKEYNYWGQGTQVTVSSSPAPELLGGPSVFLFPPKPKDTLMISRTPEVTCVVVDVSHEDPEVKFNWYVDGVEVHNAKTKPREEQYNSTYRVVSVLTVLHQDWLNGKEYKCKVSNKALPAPIEKTISKAKGQPREPQVYTKPPSREEMTKNQVSLSCLVKGFYPSDIAVEWESNGQPENNYKTTVPVLDSDGSFRLASYLTVDKSRWQQGNVFSCSVMHEALHNHYTQKSLSLSPGK

Kd [1]: 7.9 nM
Kd [2]: 13.9 nM
Kd [3]: 116 nM
Kd [4]: 33.3 nM
B9: 01D05R2LS VHH Mono-Fc (Fc fusion)
chain: EVQLVESGGGLVQTGGSLRLSCAASGRTFSPYAMGWFRQAPGKEREFVAAIRWSGATTYKYVGDSVQGRFTISRDAAGNTVYLQMNSVKPEDTAVYYCAADRVPKDISIDPRNPKDWDYWGKGTLVTVSSSPAPELLGGPSVFLFPPKPKDTLMISRTPEVTCVVVDVSHEDPEVKFNWYVDGVEVHNAKTKPREEQYNSTYRVVSVLTVLHQDWLNGKEYKCKVSNKALPAPIEKTISKAKGQPREPQVYTKPPSREEMTKNQVSLSCLVKGFYPSDIAVEWESNGQPENNYKTTVPVLDSDGSFRLASYLTVDKSRWQQGNVFSCSVMHEALHNHYTQKSLSLSPGK

Kd [1]: 8.46 nM
Kd [2]: 14.8 nM
Kd [3]: 111 nM
Kd [4]: 33.2 nM
B10: 01B06R2LS VHH Mono-Fc (Fc fusion)
chain: B9 chain with E1Q

Kd [1]: 6.91 nM
Kd [2]: 12.8 nM
Kd [3]: 123 nM
Kd [4]: 18.1 nM
B11: 01H01R2LS VHH Mono-Fc (Fc fusion)
chain: B9 chain with D64G, L125Q

Kd [1]: 29 nM
Kd [2]: 2.26 nM
Kd [3]: 112 nM
Kd [4]: 9.23 nM
B12: 01A06R3LS VHH Mono-Fc (Fc fusion)
chain: EVQLVESGGGVVQAEDSLRLSCAASGLPFSSSRMGWFRQAPGKEREFVAAIGWSGRSTYKYYADSVKGRFTVSGDNAKKTLDLQMKDLKPEDTAVYYCAAHPDYYGDPRTSGAYRYWGQGTQVTVSSSPAPELLGGPSVFLFPPKPKDTLMISRTPEVTCVVVDVSHEDPEVKFNWYVDGVEVHNAKTKPREEQYNSTYRVVSVLTVLHQDWLNGKEYKCKVSNKALPAPIEKTISKAKGQPREPQVYTKPPSREEMTKNQVSLSCLVKGFYPSDIAVEWESNGQPENNYKTTVPVLDSDGSFRLASYLTVDKSRWQQGNVFSCSVMHEALHNHYTQKSLSLSPGK

Kd [1]: 58.7 nM
Kd [2]: 3.48 nM
Kd [3]: 138 nM
Kd [4]: 8.51 nM
B13: 01B07R3L VHH Mono-Fc (Fc fusion)
chain: B12 chain with A40V, K60R, A63D, K79N, D87G, H101D, D103N, P108V, A113T, R115Q
